Measurements published in PMC10404699, “SAMHD1 impairs type I interferon induction through the MAVS, IKKε, and IRF7 signaling axis during viral infection” (The Journal of Biological Chemistry, 2023).

Molecular target: T1, recombinant N-terminal His-tagged full-length SAMHD1 (human, UniProt Q9Y3Z3 1-626)
T1 construct: also called recombinant FL SAMHD1; recombinant SAMHD1
Experiment: pull-down; in vitro pull-down of purified recombinant proteins with an anti-SAMHD1 antibody, analyzed by immunoblot; performed as described in ref. 16
Settings: both partners purified

T1 sequence (Q9Y3Z3 whole entry): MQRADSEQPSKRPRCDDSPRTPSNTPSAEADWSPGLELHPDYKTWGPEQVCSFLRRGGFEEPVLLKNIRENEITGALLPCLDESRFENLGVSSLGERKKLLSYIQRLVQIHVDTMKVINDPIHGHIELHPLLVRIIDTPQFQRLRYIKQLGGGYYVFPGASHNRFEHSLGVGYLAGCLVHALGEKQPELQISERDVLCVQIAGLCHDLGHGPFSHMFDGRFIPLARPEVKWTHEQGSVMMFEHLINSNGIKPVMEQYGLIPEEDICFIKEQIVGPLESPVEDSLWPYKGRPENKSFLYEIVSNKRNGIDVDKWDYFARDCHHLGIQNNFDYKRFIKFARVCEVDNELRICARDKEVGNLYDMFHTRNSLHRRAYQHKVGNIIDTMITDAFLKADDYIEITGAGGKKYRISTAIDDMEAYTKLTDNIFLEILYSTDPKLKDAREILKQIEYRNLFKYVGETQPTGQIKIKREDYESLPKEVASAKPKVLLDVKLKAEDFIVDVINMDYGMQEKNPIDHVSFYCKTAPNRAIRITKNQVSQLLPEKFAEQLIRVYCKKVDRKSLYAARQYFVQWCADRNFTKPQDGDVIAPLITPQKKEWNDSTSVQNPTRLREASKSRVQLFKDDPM

B1: purified His-tagged MAVS without the TM domain (aa 1-513) (domain or fragment, human, UniProt Q7Z434 1-513, looked up)
chain: MPFAEDKTYKYICRNFSNFCNVDVVEILPYLPCLTARDQDRLRATCTLSGNRDTLWHLFNTLQRRPGWVEYFIAALRGCELVDLADEVASVYQSYQPRTSDRPPDPLEPPSLPAERPGPPTPAAAHSIPYNSCREKEPSYPMPVQETQAPESPGENSEQALQTLSPRAIPRNPDGGPLESSSDLAALSPLTSSGHQEQDTELGSTHTAGATSSLTPSRGPVSPSVSFQPLARSTPRASRLPGPTGSVVSTGTSFSSSSPGLASAGAAEGKQGAESDQAEPIICSSGAEAPANSLPSKVPTTLMPVNTVALKVPANPASVSTVPSKLPTSSKPPGAVPSNALTNPAPSKLPINSTRAGMVPSKVPTSMVLTKVSASTVPTDGSSRNEETPAAPTPAGATGGSSAWLDSSSENRGLGSELSKPGVLASQVDSPFSGCFEDLAISASTSLGMGPCHGPEENEYKSEGTFGIHVAENPSIQLLEGNPGPPADPDGGPRPQADRKFQEREVPCHRPSP
notes: also called MAVS without TM; recombinant MAVS without the TM domain; source: bought: Origene (AR50771PU-N); purified from E. coli
  binding result: binds
